Test system: Nc1nc2c(ncn2[C@@H]2O[C@H](COP(=O)(O)O[C@H]3[C@@H](O)[C@H](n4cnc5c(N)ncnc54)O[C@@H]3CO)[C@@H](O)[C@H]2O)c(=O)[nH]1
Experiment: purified protein, by the assay type
Details: pH 7.4; 24.0 °C

## influenza B polymerase initiating RNA synthesis at the vRNA promoter (vPol) (Influenza B virus (B/Memphis/13/2003))
  Km: 58 ± 18 µM

Source: article PMC5399792
